Test results: the Human Domainome abundance scans (Beltran et al. 2025)
± gives the uncertainty stated by the source.

Assay: abundance fitness (aPCA) (normalised: wild type 0, dead -1); higher = more abundant; growth selection in yeast, the domain comes from the species named
Conditions: Homo sapiens
Work on “Lipoamide acyltransferase component of branched-chain alpha-keto acid dehydrogenase complex, mitochondrial G214H, P11182” yielded an abundance fitness of 0.016 ± 0.17. In the case of “Lipoamide acyltransferase component of branched-chain alpha-keto acid dehydrogenase complex, mitochondrial G214K, P11182”, the abundance fitness is reported as 0.129 ± 0.076. “Lipoamide acyltransferase component of branched-chain alpha-keto acid dehydrogenase complex, mitochondrial G214M, P11182” gave an abundance fitness of -0.154 ± 0.23. In the case of “Lipoamide acyltransferase component of branched-chain alpha-keto acid dehydrogenase complex, mitochondrial G214N, P11182”, the abundance fitness is reported as -0.41 ± 0.18. For “Lipoamide acyltransferase component of branched-chain alpha-keto acid dehydrogenase complex, mitochondrial G214P, P11182”, the abundance fitness was -0.474 ± 0.2. Substance “Lipoamide acyltransferase component of branched-chain alpha-keto acid dehydrogenase complex, mitochondrial G214Q, P11182” has an abundance fitness of 0.133 ± 0.074. In the case of “Lipoamide acyltransferase component of branched-chain alpha-keto acid dehydrogenase complex, mitochondrial G214R, P11182”, the abundance fitness is reported as -0.002 ± 0.039. For “Lipoamide acyltransferase component of branched-chain alpha-keto acid dehydrogenase complex, mitochondrial G214S, P11182”, the abundance fitness was -0.028 ± 0.078. With “Lipoamide acyltransferase component of branched-chain alpha-keto acid dehydrogenase complex, mitochondrial G214T, P11182” the abundance fitness was -0.034 ± 0.13. Substance “Lipoamide acyltransferase component of branched-chain alpha-keto acid dehydrogenase complex, mitochondrial G214V, P11182” has an abundance fitness of -0.08 ± 0.065. Work on “Lipoamide acyltransferase component of branched-chain alpha-keto acid dehydrogenase complex, mitochondrial G214W, P11182” yielded an abundance fitness of -0.315 ± 0.054. For “Lipoamide acyltransferase component of branched-chain alpha-keto acid dehydrogenase complex, mitochondrial G214Y, P11182”, the abundance fitness was -0.189 ± 0.12. Work on “Lipoamide acyltransferase component of branched-chain alpha-keto acid dehydrogenase complex, mitochondrial I186A, P11182” yielded an abundance fitness of -0.555 ± 0.044. For “Lipoamide acyltransferase component of branched-chain alpha-keto acid dehydrogenase complex, mitochondrial I186C, P11182”, the abundance fitness was -0.239 ± 0.074. “Lipoamide acyltransferase component of branched-chain alpha-keto acid dehydrogenase complex, mitochondrial I186D, P11182” gave an abundance fitness of -0.81 ± 0.077. “Lipoamide acyltransferase component of branched-chain alpha-keto acid dehydrogenase complex, mitochondrial I186E, P11182” gave an abundance fitness of -0.543 ± 0.065. For “Lipoamide acyltransferase component of branched-chain alpha-keto acid dehydrogenase complex, mitochondrial I186F, P11182”, the abundance fitness was -0.9 ± 0.18. In the case of “Lipoamide acyltransferase component of branched-chain alpha-keto acid dehydrogenase complex, mitochondrial I186G, P11182”, the abundance fitness is reported as -0.748 ± 0.042. Work on “Lipoamide acyltransferase component of branched-chain alpha-keto acid dehydrogenase complex, mitochondrial I186H, P11182” yielded an abundance fitness of -0.679 ± 0.091. “Lipoamide acyltransferase component of branched-chain alpha-keto acid dehydrogenase complex, mitochondrial I186K, P11182” gave an abundance fitness of -0.533 ± 0.4. “Lipoamide acyltransferase component of branched-chain alpha-keto acid dehydrogenase complex, mitochondrial I186L, P11182” gave an abundance fitness of -0.32 ± 0.057. “Lipoamide acyltransferase component of branched-chain alpha-keto acid dehydrogenase complex, mitochondrial I186M, P11182” gave an abundance fitness of -0.419 ± 0.069. “Lipoamide acyltransferase component of branched-chain alpha-keto acid dehydrogenase complex, mitochondrial I186N, P11182” showed an abundance fitness of -0.735 ± 0.097. With “Lipoamide acyltransferase component of branched-chain alpha-keto acid dehydrogenase complex, mitochondrial I186P, P11182” the abundance fitness was -0.918 ± 0.11. Substance “Lipoamide acyltransferase component of branched-chain alpha-keto acid dehydrogenase complex, mitochondrial I186R, P11182” has an abundance fitness of -0.722 ± 0.049. In the case of “Lipoamide acyltransferase component of branched-chain alpha-keto acid dehydrogenase complex, mitochondrial I186S, P11182”, the abundance fitness is reported as -0.594 ± 0.064. “Lipoamide acyltransferase component of branched-chain alpha-keto acid dehydrogenase complex, mitochondrial I186T, P11182” showed an abundance fitness of -0.484 ± 0.091. “Lipoamide acyltransferase component of branched-chain alpha-keto acid dehydrogenase complex, mitochondrial I186V, P11182” gave an abundance fitness of -0.046 ± 0.046. Work on “Lipoamide acyltransferase component of branched-chain alpha-keto acid dehydrogenase complex, mitochondrial I186W, P11182” yielded an abundance fitness of -1.05 ± 0.094. In the case of “Lipoamide acyltransferase component of branched-chain alpha-keto acid dehydrogenase complex, mitochondrial I200A, P11182”, the abundance fitness is reported as -0.66 ± 0.048. Work on “Lipoamide acyltransferase component of branched-chain alpha-keto acid dehydrogenase complex, mitochondrial I200C, P11182” yielded an abundance fitness of -0.589 ± 0.062. “Lipoamide acyltransferase component of branched-chain alpha-keto acid dehydrogenase complex, mitochondrial I200D, P11182” showed an abundance fitness of -0.567 ± 0.21. For “Lipoamide acyltransferase component of branched-chain alpha-keto acid dehydrogenase complex, mitochondrial I200E, P11182”, the abundance fitness was -0.558 ± 0.072. In the case of “Lipoamide acyltransferase component of branched-chain alpha-keto acid dehydrogenase complex, mitochondrial I200F, P11182”, the abundance fitness is reported as -0.76 ± 0.097. Substance “Lipoamide acyltransferase component of branched-chain alpha-keto acid dehydrogenase complex, mitochondrial I200G, P11182” has an abundance fitness of -0.667 ± 0.045. Substance “Lipoamide acyltransferase component of branched-chain alpha-keto acid dehydrogenase complex, mitochondrial I200H, P11182” has an abundance fitness of -0.678 ± 0.089. Substance “Lipoamide acyltransferase component of branched-chain alpha-keto acid dehydrogenase complex, mitochondrial I200L, P11182” has an abundance fitness of -0.334 ± 0.043. In the case of “Lipoamide acyltransferase component of branched-chain alpha-keto acid dehydrogenase complex, mitochondrial I200M, P11182”, the abundance fitness is reported as -0.563 ± 0.061. Substance “Lipoamide acyltransferase component of branched-chain alpha-keto acid dehydrogenase complex, mitochondrial I200N, P11182” has an abundance fitness of -0.711 ± 0.28. In the case of “Lipoamide acyltransferase component of branched-chain alpha-keto acid dehydrogenase complex, mitochondrial I200P, P11182”, the abundance fitness is reported as -0.483 ± 0.05. For “Lipoamide acyltransferase component of branched-chain alpha-keto acid dehydrogenase complex, mitochondrial I200Q, P11182”, the abundance fitness was -0.643 ± 0.07. Substance “Lipoamide acyltransferase component of branched-chain alpha-keto acid dehydrogenase complex, mitochondrial I200R, P11182” has an abundance fitness of -0.764 ± 0.045. “Lipoamide acyltransferase component of branched-chain alpha-keto acid dehydrogenase complex, mitochondrial I200S, P11182” gave an abundance fitness of -0.76 ± 0.042. For “Lipoamide acyltransferase component of branched-chain alpha-keto acid dehydrogenase complex, mitochondrial I200T, P11182”, the abundance fitness was -0.625 ± 0.06. In the case of “Lipoamide acyltransferase component of branched-chain alpha-keto acid dehydrogenase complex, mitochondrial I200V, P11182”, the abundance fitness is reported as -0.021 ± 0.039. With “Lipoamide acyltransferase component of branched-chain alpha-keto acid dehydrogenase complex, mitochondrial I200W, P11182” the abundance fitness was -0.852 ± 0.063. For “Lipoamide acyltransferase component of branched-chain alpha-keto acid dehydrogenase complex, mitochondrial I205A, P11182”, the abundance fitness was -0.356 ± 0.041. “Lipoamide acyltransferase component of branched-chain alpha-keto acid dehydrogenase complex, mitochondrial I205C, P11182” gave an abundance fitness of -0.16 ± 0.052.
